Test results taken from US20220048990A1.

Legend:
[1] = target: T1, Mouse polymeric immunoglobulin receptor (mouse) (UniProt O70570); assay: SPR (Biacore); panel shown again on D00107
T1 sequence (looked up): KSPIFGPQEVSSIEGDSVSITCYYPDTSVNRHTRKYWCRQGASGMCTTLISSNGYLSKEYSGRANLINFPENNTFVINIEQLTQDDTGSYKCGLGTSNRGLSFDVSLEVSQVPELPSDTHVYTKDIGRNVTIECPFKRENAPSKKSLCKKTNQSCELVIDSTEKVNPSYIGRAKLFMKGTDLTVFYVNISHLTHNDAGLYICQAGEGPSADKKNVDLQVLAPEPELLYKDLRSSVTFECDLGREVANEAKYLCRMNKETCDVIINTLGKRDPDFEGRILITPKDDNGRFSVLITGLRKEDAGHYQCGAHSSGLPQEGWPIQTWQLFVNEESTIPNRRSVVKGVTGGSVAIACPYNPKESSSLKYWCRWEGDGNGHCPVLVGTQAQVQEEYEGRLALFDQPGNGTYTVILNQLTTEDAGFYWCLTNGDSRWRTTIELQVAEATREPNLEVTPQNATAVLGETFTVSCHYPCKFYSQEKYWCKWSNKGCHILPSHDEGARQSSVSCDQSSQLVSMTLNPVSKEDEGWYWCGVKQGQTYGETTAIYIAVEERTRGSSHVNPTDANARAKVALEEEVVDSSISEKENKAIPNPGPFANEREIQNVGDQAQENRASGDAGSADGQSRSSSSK

[2] = target: T1, Mouse polymeric immunoglobulin receptor (mouse); assay: SPR (Biacore)
[3] = target: Human polymeric immunoglobulin receptor (human) (UniProt P01833); assay: SPR (Biacore)
[4] = target: Human FcαRI (human) (UniProt P24071); assay: Wasatch array SPR, antibody immobilised, n>=3
UniProt P24071, sequence (P24071 22-227 limits assumed): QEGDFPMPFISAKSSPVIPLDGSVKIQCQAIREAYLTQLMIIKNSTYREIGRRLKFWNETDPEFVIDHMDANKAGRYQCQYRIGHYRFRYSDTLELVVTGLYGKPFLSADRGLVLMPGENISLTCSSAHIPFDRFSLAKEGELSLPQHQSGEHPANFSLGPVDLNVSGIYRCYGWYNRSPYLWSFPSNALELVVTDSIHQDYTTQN

UniProt P01833, sequence (P01833 19-638 limits assumed): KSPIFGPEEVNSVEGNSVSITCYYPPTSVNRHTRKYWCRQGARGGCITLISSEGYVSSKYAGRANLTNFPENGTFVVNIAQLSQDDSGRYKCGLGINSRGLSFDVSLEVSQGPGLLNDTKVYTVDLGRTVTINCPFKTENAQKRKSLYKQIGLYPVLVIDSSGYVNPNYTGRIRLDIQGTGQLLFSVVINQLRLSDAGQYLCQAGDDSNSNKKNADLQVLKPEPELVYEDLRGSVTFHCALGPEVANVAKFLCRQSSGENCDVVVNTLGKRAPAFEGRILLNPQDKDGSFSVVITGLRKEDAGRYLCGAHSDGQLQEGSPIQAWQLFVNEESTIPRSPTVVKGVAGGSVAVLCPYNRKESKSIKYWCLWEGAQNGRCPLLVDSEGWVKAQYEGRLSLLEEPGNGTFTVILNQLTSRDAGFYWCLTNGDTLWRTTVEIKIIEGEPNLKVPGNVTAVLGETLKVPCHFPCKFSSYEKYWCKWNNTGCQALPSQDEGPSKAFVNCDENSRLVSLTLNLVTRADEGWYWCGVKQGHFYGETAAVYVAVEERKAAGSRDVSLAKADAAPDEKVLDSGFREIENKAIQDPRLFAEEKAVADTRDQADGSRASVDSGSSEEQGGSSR

Kd [1] [nM] | Kd [2] [nM] | Kd [3] [nM] | Kd [4] [nM] | Substance
0.79 | 0.79 | 0.98 | – | Glycosylated IgA2m2.Fc only Tetramer
– | – | – | 1750 | Human serum IgA monomer (antibody)
